Source: patent US20180244725

Tested on: T1, R5 peptide
T1 sequence: SSKKSGSYSGSKGSKRRIL

For JMJD6 (Auxenochlorella protothecoides), the “enzymatic modification of R5 (Hydroxylation)” value was “resulted in no modifications”.
In the case of JMJD6 (Nannochloropsos gaditana), the “enzymatic modification of R5 (Hydroxylation)” value is reported as “resulted in no modifications”.
In the case of LIPT1, the “enzymatic modification of R5 (Lipidation)” value is reported as “resulted in no modifications”.
For Protein Kinase A (PKA) (NEB P6000S), the “phosphorylation sites on R5 (LC-MS/MS)” value was “primary phosphorylation at Ser11, with very low levels of phosphorylation at Ser4, Ser7, and Ser1.6”.
In the case of THAOC_04424, the “enzymatic modification of R5 (Hydroxylation)” value is reported as “resulted in no modifications”.
For THAOC_24272, the “methylation of R5 (LC-MS, LC-MS/MS)” value was “the methylation occurs on all four lysine with no discernable preference or pattern”.
With THAOC_27572 the “enzymatic modification of R5 (Hydroxylation)” value was “resulted in no modifications”.
THAOC_37500 was tested, and the “methylation of R5 (LC-MS time course)” value was “A time course showing the incorporation of zero to 16 methyl groups into R5”.
In the case of Tyrosinase from mushrooms (Sigma T3824), the “oxidation and polymerization of R5 (absorbance at 350 nm, SDS-PAGE)” value is reported as “A time course was generated showing the production of oxidized R5 (FIGS. 6B-6C) and the subsequent spontaneous formation of R5 polymers”.
